Test system: Escherichia coli TOP10
Test: shrunken log2 fold change of peptide-encoding DNA abundance (4.5 h post-induction vs induction); higher = less antimicrobial activity (less host growth inhibition)
Details: time post-induction: 4.5 h; library: site-saturation at positions 5, 18, 19, 20
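Note: peptides expressed intracellularly from a pBAD plasmid library in pooled LB shake-flask culture, induced with 0.3% L-arabinose, DNA abundance read by NGS, three biological replicates, DESeq2 with apeglm shrinkage.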

Sequence	shrunken log2 fold change
RRIRDRPPRLPRPRPRPKDYPRP	-0.192
RRIRHRPPRLPRPRPRPSWAPRP	0.19
RRIRIRPPRLPRPRPRPPMPPRP	-0.0926
RRIRGRPPRLPRPRPRPPFEPRP	0.691
RRIRLRPPRLPRPRPRPFTSPRP	-0.153
RRIRNRPPRLPRPRPRPDTNPRP	-0.141
RRIRMRPPRLPRPRPRPWYKPRP	0.00884
RRIRQRPPRLPRPRPRPSGRPRP	0.137
RRIRIRPPRLPRPRPRPGLDPRP	0.0575
RRIRERPPRLPRPRPRPHQTPRP	-0.0225
RRIRGRPPRLPRPRPRPMDCPRP	0.357
RRIRLRPPRLPRPRPRPANPPRP	-0.0638
RRIRVRPPRLPRPRPRPTPHPRP	0.313
RRIRIRPPRLPRPRPRPCCWPRP	0.0865
RRIRHRPPRLPRPRPRPAPSPRP	0.709
RRIRERPPRLPRPRPRPPQCPRP	-0.302
RRIRFRPPRLPRPRPRPGQRPRP	0.686
RRIRARPPRLPRPRPRPQGCPRP	0.03
RRIRYRPPRLPRPRPRPTSPPRP	-0.0595
RRIRKRPPRLPRPRPRPEFNPRP	0.15
RRIRVRPPRLPRPRPRPGSPPRP	0.187
RRIRTRPPRLPRPRPRPRLSPRP	-0.0634
RRIRFRPPRLPRPRPRPTCRPRP	-0.0357
RRIRARPPRLPRPRPRPFFTPRP	0.617
RRIRMRPPRLPRPRPRPAAWPRP	0.11

Sequence	shrunken log2 fold change
RRIRLRPPRLPRPRPRPCMPPRP	-0.579
RRIRYRPPRLPRPRPRPSWCPRP	-0.0502
RRIRYRPPRLPRPRPRPSNEPRP	-0.474
RRIRTRPPRLPRPRPRPESFPRP	-0.47
RRIRIRPPRLPRPRPRPNCQPRP	-0.367
RRIRLRPPRLPRPRPRPEIRPRP	-0.0685
RRIRCRPPRLPRPRPRPCWNPRP	-0.49
RRIRFRPPRLPRPRPRPPICPRP	0.172
RRIRLRPPRLPRPRPRPSEIPRP	-0.397
RRIRVRPPRLPRPRPRPEHRPRP	-0.0452
RRIRTRPPRLPRPRPRPVRRPRP	0.38
RRIRDRPPRLPRPRPRPEICPRP	0.023
RRIRGRPPRLPRPRPRPEATPRP	2.21
RRIRMRPPRLPRPRPRPYVKPRP	-0.209
RRIRKRPPRLPRPRPRPWWCPRP	0.0624
RRIRRRPPRLPRPRPRPRVRPRP	0.649
RRIRSRPPRLPRPRPRPDLMPRP	-0.0144
RRIRFRPPRLPRPRPRPKMVPRP	-0.0413
RRIRTRPPRLPRPRPRPSQFPRP	-0.302
RRIRIRPPRLPRPRPRPTWNPRP	0.409
RRIRTRPPRLPRPRPRPEITPRP	-0.0572
RRIRRRPPRLPRPRPRPLSGPRP	0.379
RRIRRRPPRLPRPRPRPQKIPRP	0.0999
RRIRERPPRLPRPRPRPAEIPRP	-0.207
RRIRPRPPRLPRPRPRPHFNPRP	-0.433

Sequence	shrunken log2 fold change
RRIRWRPPRLPRPRPRPTNRPRP	-0.018
RRIRCRPPRLPRPRPRPARSPRP	0.261
RRIRDRPPRLPRPRPRPKPQPRP	0.111
RRIRDRPPRLPRPRPRPTPHPRP	0.175
RRIRPRPPRLPRPRPRPQLPPRP	0.0534
RRIRCRPPRLPRPRPRPPMLPRP	0.0982
RRIRDRPPRLPRPRPRPHWAPRP	-0.00226
RRIRSRPPRLPRPRPRPDHLPRP	-0.0228
RRIRFRPPRLPRPRPRPLWHPRP	-0.248
RRIRNRPPRLPRPRPRPVTQPRP	0.0396
RRIRGRPPRLPRPRPRPYMSPRP	0.0366
RRIRFRPPRLPRPRPRPLMGPRP	-0.18
RRIRLRPPRLPRPRPRPNPFPRP	-0.334
RRIRERPPRLPRPRPRPVWGPRP	0.259
RRIRCRPPRLPRPRPRPPKAPRP	-0.112
RRIRFRPPRLPRPRPRPWIQPRP	-0.997
RRIRDRPPRLPRPRPRPWPKPRP	-0.149
RRIRKRPPRLPRPRPRPLCEPRP	0.446
RRIRYRPPRLPRPRPRPKGHPRP	-0.145
RRIRLRPPRLPRPRPRPTKGPRP	0.226
RRIRVRPPRLPRPRPRPANVPRP	-0.597
RRIRRRPPRLPRPRPRPSVCPRP	0.0243
RRIRWRPPRLPRPRPRPYLWPRP	-0.153
RRIRLRPPRLPRPRPRPLTSPRP	-0.179
RRIRDRPPRLPRPRPRPLFTPRP	0.0222

Sequence	shrunken log2 fold change
RRIRHRPPRLPRPRPRPEGSPRP	-0.0192
RRIRWRPPRLPRPRPRPMCDPRP	0.116
RRIRDRPPRLPRPRPRPSILPRP	0.202
RRIRCRPPRLPRPRPRPETDPRP	-0.00874
RRIRPRPPRLPRPRPRPMINPRP	-0.179
RRIRHRPPRLPRPRPRPLLSPRP	-0.0464
RRIRMRPPRLPRPRPRPVVVPRP	-0.0177
RRIRERPPRLPRPRPRPLQLPRP	-0.33
RRIRPRPPRLPRPRPRPTPHPRP	0.373
RRIRDRPPRLPRPRPRPEWIPRP	0.0504
RRIRLRPPRLPRPRPRPPIWPRP	0.0261
RRIRDRPPRLPRPRPRPCIHPRP	-0.233
RRIRQRPPRLPRPRPRPQKGPRP	0.011
RRIRTRPPRLPRPRPRPQRKPRP	0.138
RRIRFRPPRLPRPRPRPFSRPRP	0.184
RRIRWRPPRLPRPRPRPVCIPRP	0.12
RRIRTRPPRLPRPRPRPRPNPRP	0.267
RRIRQRPPRLPRPRPRPRKCPRP	0.158
RRIRTRPPRLPRPRPRPKNGPRP	0.0173
RRIRRRPPRLPRPRPRPYTAPRP	-0.447
RRIRKRPPRLPRPRPRPHYIPRP	-0.123
RRIRFRPPRLPRPRPRPFCTPRP	-0.19
RRIRPRPPRLPRPRPRPNMYPRP	-0.746
RRIRNRPPRLPRPRPRPIHSPRP	-0.189
RRIRHRPPRLPRPRPRPLFIPRP	-0.68

Sequence	shrunken log2 fold change
RRIRLRPPRLPRPRPRPPYHPRP	-0.317
RRIRFRPPRLPRPRPRPSQAPRP	-0.0595
RRIRDRPPRLPRPRPRPSLNPRP	0.138
RRIRWRPPRLPRPRPRPSEMPRP	-0.148
RRIRHRPPRLPRPRPRPLFGPRP	-0.0987
RRIRHRPPRLPRPRPRPNSLPRP	-0.0817
RRIRYRPPRLPRPRPRPICKPRP	-0.193
RRIRFRPPRLPRPRPRPTDRPRP	0.243
RRIRPRPPRLPRPRPRPYSAPRP	-1.14
RRIRRRPPRLPRPRPRPFLDPRP	0.0172
RRIRNRPPRLPRPRPRPCNNPRP	-0.0122
RRIRTRPPRLPRPRPRPVTWPRP	-0.0681
RRIRPRPPRLPRPRPRPSEKPRP	-0.0945
RRIRCRPPRLPRPRPRPKVWPRP	0.261
RRIRLRPPRLPRPRPRPLRVPRP	0.4
RRIRSRPPRLPRPRPRPPQWPRP	0.504
RRIRHRPPRLPRPRPRPSFLPRP	-0.729
RRIRARPPRLPRPRPRPYFHPRP	-0.444
RRIRFRPPRLPRPRPRPMTEPRP	-0.0907
RRIRARPPRLPRPRPRPKLSPRP	0.138
RRIRLRPPRLPRPRPRPHVTPRP	-0.198
RRIRMRPPRLPRPRPRPCICPRP	-0.0505
RRIRPRPPRLPRPRPRPMHFPRP	0.015
RRIRQRPPRLPRPRPRPQPEPRP	-0.0839
RRIRFRPPRLPRPRPRPWLVPRP	-0.135

Sequence	shrunken log2 fold change
RRIRHRPPRLPRPRPRPLAFPRP	-0.2
RRIRQRPPRLPRPRPRPAWAPRP	0.263
RRIRARPPRLPRPRPRPCDHPRP	0.0696
RRIRVRPPRLPRPRPRPSQSPRP	-0.146
RRIRMRPPRLPRPRPRPDRWPRP	0.926
RRIRRRPPRLPRPRPRPRRSPRP	0.516
RRIRLRPPRLPRPRPRPAIHPRP	-0.192
RRIRGRPPRLPRPRPRPRSYPRP	0.288
RRIRFRPPRLPRPRPRPPLYPRP	-0.0579
RRIRGRPPRLPRPRPRPHSAPRP	0.0365
RRIRPRPPRLPRPRPRPNHLPRP	-0.601
RRIRKRPPRLPRPRPRPWWTPRP	0.0991
RRIRARPPRLPRPRPRPRIEPRP	0.309
RRIRTRPPRLPRPRPRPGKCPRP	0.0114
RRIRDRPPRLPRPRPRPDFLPRP	0.136
RRIRWRPPRLPRPRPRPGGTPRP	0.209
RRIRIRPPRLPRPRPRPMCEPRP	-0.00819
RRIRCRPPRLPRPRPRPLYTPRP	-0.765
RRIRRRPPRLPRPRPRPRHIPRP	0.945
RRIRHRPPRLPRPRPRPRWYPRP	-0.137
RRIRFRPPRLPRPRPRPVQTPRP	0.0206
RRIRERPPRLPRPRPRPLSVPRP	-0.642
RRIRNRPPRLPRPRPRPHVKPRP	-0.17
RRIRTRPPRLPRPRPRPQMGPRP	-0.0284
RRIRMRPPRLPRPRPRPVSGPRP	0.594
